Data set [1] concerns the target chicken CALHM1Δct (residues 1-291, C-terminal Strep-II tag) (chicken). In words: cryo-EM 2D classification; 'top' views of 2D classification of the same nanodisc samples.
For data set [2] the target is unchanged. The data set is described as follows: cryo-EM structure; single-particle 3D reconstruction in lipid nanodiscs (soybean polar extract, MSP2N2); chicken: 20 mM Tris pH 8.0, 150 mM NaCl, 1 mM EDTA; human: 20 mM HEPES-NaOH pH 7.5, 200 mM NaCl, 1 mM EDTA.
Data set [3] concerns the target human CALHM1Δct-Ile109Trp (C-terminal Strep-II tag) (human) (UniProt Q8IU99). In words: cryo-EM structure; single-particle reconstruction in lipid nanodiscs, 20 mM HEPES-NaOH pH 7.5, 200 mM NaCl; with RuR (50 µM RuR, 1 mM EGTA; C8 and C1 maps) and RuR-free (1 mM EDTA).
Data set [4] addresses killifish CALHM1Δct (killifish). In words: cryo-EM 2D classification; reanalysis of the publicly available dataset EMPIAR #10444.
Data set [5] deals with the molecule itself. In words: cryo-EM 2D classification; 'top' views of 2D classification of the same nanodisc samples.
Data set [6] deals with the molecule itself. The data set is described as follows: cryo-EM structure; single-particle 3D reconstruction in lipid nanodiscs (soybean polar extract, MSP2N2); chicken: 20 mM Tris pH 8.0, 150 mM NaCl, 1 mM EDTA; human: 20 mM HEPES-NaOH pH 7.5, 200 mM NaCl, 1 mM EDTA.

Results on four molecules are retold here after PMC10307800, “Structure of human CALHM1 reveals key locations for channel regulation and blockade by ruthenium red” (Nature Communications, 2023).

Values joined by “and” are separate entries in the source; they are usually repeats but may differ in a detail not shown here. Equal values may be shown once.

For the molecule “chicken CALHM1Δct (residues 1-291, C-terminal Strep-II tag) (domain or fragment)”, the stoichiometry N – broadly, the number of molecules, sites or subunits per partner or assembly – in data set [1] is 8 and 9; in data set [2] it was 8. On to “human CALHM1Δct-Ile109Trp (C-terminal Strep-II tag) (from UniProt Q8IU99 1-303) (domain or fragment)”, for which the stoichiometry N in data set [3] came to 8. “killifish CALHM1Δct (domain or fragment)”: the stoichiometry N in data set [4] was 8 and 9.

B1: human CALHM1Δct (calcium homeostasis modulator 1, residues 1-303, C-terminal Strep-II tag) (domain or fragment, UniProt Q8IU99 1-303, looked up)
chain: MMDKFRMIFQFLQSNQESFMNGICGIMALASAQMYSAFDFNCPCLPGYNAAYSAGILLAPPLVLFLLGLVMNNNVSMLAEEWKRPPGRRAKDPAVLRYMFCSMAQRALIAPVVWVAVTLLDGKCFLCAFCTAVPVSALGNGSLAPGLPAPELARLLARVPCPEIYDGDWLLAREVAVRYLRCISQALGWSFVLLTTLLAFVVRSVRPCFTQAAFLKSKYWSHYIDIERKLFDETCTEHAKAFAKVCIQQFFEAMNHDLELGHTHGTLATAPASAAAPTTPDGAEEEREKLRGITDQGTMNRLL
notes: calcium homeostasis modulator 1 (CALHM1), human, residues 1-303 (C-terminal truncation; residues 303-346 follow the CTH in the whole protein); Octamer in the 3D reconstruction; nonameric particles were also seen in 2D classes; also called hCALHM1Δct; hCALHM1∆ct; source: HEK293S GnTI- cells, baculovirus infection; purified (Strep-Tactin, SEC), reconstituted into lipid nanodiscs (MSP2N2, soybean …)
For the molecule B1, the “stoichiometry N” value in data set [5] was 9; in data set [6], 8.
